This is an account of results in patent publication US20220306744A1 (CRESCENDO BIOLOGICS, published 2022).

Experiment [1] addresses T1, human PD-1 expressed on cells (CHO TREX human PD1 cell line, full-length human PD-1 sequence) (human, UniProt Q15116 21-288).
T1 construct: Also used for human PD-1 on Jurkat reporter cells, on PathHunter cells and on PHA-stimulated human CD4+ T cells; also called CHO human PD1 cells; CHO human PD-1 cells
Briefly: FMAT epitope competition, CHO human PD1 cells; competitor Epitope 1 (1.1-Strep tagged protein). How it is done:
(§1) For the epitope competition assay reagents were prepared in FMAT assay buffer.
(§2) Multivalent molecules 1.92b-4GS-1.39a and 1.92b-4gs-1.62a were tested in the epitope competition assay as described above. 1.92b-4GS-1.39a and 1.92b-4gs-1.62 did cross compete with 1.1-Strap tagged and 2.1-Strap tagged proteins for binding to the cells.
(§3) Plates were incubated for a minimum of 1.5 hours at room temperature then fluorescence measured in the FL2 (502 nm-537 nm) and FL5 (677-800 nm) channels on the Mirrorball plate reader (TTP) following excitation at 488 nm and 640 nm. Data was expressed as a % of the total binding control (i.e. % control) after subtraction of the background signal determined from the non-specific binding control wells.

In experiment [2] the target is T1, human PD-1 expressed on cells (CHO TREX …). Briefly: epitope competition assay on CHO human PD1 cells (labelled VH not specified) after 4 days in mouse serum. As for the experimental part:
(§4) Serum stability of VH and multivalent VH constructs was assessed by measurement of their activity following incubation for 0, 1, 4 or 7 days both in mouse (Sigma M5905) and human serum. […] Minimal loss of activity was observed following incubation with serum.

The target is the same in experiment [3]. Briefly: flow cytometry, PHA-stimulated human CD4+ T cells, Donor 4. As for the experimental part:
(§5) Binding of monovalent single domain antibodies and multivalent binding agents to T cells was measured using flow cytometry. Peripheral blood mononuclear cells (PBMCs) were isolated from human blood by density gradient centrifugation then CD4+ T cells purified using a negative selection isolation kit according to the manufacturer's protocol (Miltenyi Biotech cat no 130-096-533). T-cells were stimulated with 2.5 μg/ml PHA for 3 days in RPMI media supplemented with 10% FBS, 2 mM Glutamine, 1× Pen/Strep. Cells were transferred into 96 well plates (75000 per well), blocked for 10 mins with PBS/1% BSA, then incubated with serially diluted VH in staining buffer (PBS/1% BSA) for 1 hour at 4° C. Cells were washed with staining buffer by centrifugation then incubated with 10 μg/ml biotinylated Anti His antibody for 40 mins at 4° C. Cells were washed again then stained with Streptavidin Alexa Fluor-488 (10 μg/ml) and 1:5000 diluted Live Dead near IR stain (Molecular Probes cat no. L10119) for 30 mins at 4° C. After further washing cells were fixed and fluorescence measured by flow cytometry.

The target is the same in experiment [4]. Briefly: FMAT epitope competition, CHO human PD1 cells; competitor Epitope 2 (2.1-Strep tagged protein). How it is done:
as §1, §2, §3

Experiment [5] shares this target. Briefly: cell-based or functional assay.
For experiment [6] the target is unchanged. Briefly: FMAT: inhibition of human Fc tagged human PD-L1 (400 pM) binding to CHO human PD-1 cells. As for the experimental part:
(§6) Purified VH were serially diluted in FMAT assay buffer and tested for binding to CHO human PD-1 cells as described above and for inhibition of human PD-L1/PD-L2 binding to CHO human PD-1 cells. All reagents and serially diluted VH were prepared in FMAT assay buffer. VH, buffer (total binding controls) or excess competitor (non-specific binding control) were incubated with 400 pM human Fc tagged human PD-L1 or 100 pM PDL-2, 4 nM anti human Fc-Alexa Fluor-488 and 2000 per well CHO human PD-1 DRAQ5 stained cells in a 384 well black clear-bottomed assay plates. Plates were incubated for 2 hours at room temperature then fluorescence measured in the FL2 (502 nm-537 nm) and FL5 (677-800 nm) channels on the Mirrorball plate reader (TTP) following excitation at 488 nm and 640 nm. Data was expressed as a % of the total binding control (i.e. % control) after subtraction of the background signal determined from the non-specific binding control wells. The results are shown in FIG. 5 and in Tables 8 and 9 below.

For experiment [7] the target is unchanged. Briefly: epitope competition assay on CHO human PD1 cells (labelled VH not specified) after 4 days in human serum. How it is done: as §4
Experiment [8] has the same target. Briefly: flow cytometry, PHA-stimulated human CD4+ T cells, Donor 1. How it is done: as §5
Experiment [9] shares this target. Briefly: FMAT: inhibition of PDL-2 (100 pM) binding to CHO human PD-1 cells. How it is done:
as §6

The target is the same in experiment [10]. Briefly: flow cytometry, PHA-stimulated human CD4+ T cells, Donor 3. How it is done: as §5
Experiment [11] shares this target. Briefly: epitope competition assay on CHO human PD1 cells (labelled VH not specified) after 0 days in mouse serum. As for the experimental part: as §4
The target is the same in experiment [12]. Briefly: epitope competition assay on CHO human PD1 cells (labelled VH not specified) after 1 day in mouse serum. As for the experimental part:
as §4

Experiment [13] has the same target. Briefly: epitope competition assay on CHO human PD1 cells (labelled VH not specified) after 0 days in human serum.

T1 sequence (Q15116 21-288): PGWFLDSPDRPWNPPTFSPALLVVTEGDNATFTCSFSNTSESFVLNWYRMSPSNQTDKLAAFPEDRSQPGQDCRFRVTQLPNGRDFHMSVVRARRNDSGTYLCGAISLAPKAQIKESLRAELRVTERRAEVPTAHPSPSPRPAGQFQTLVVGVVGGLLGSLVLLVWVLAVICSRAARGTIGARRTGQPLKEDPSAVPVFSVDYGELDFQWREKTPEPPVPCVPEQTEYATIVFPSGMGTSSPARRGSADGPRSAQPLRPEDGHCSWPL

B1: 1.92b-4GS-1.39a (other)
chain: EVQLVESGGGLVKPGGSLRLSCAASGFTFSDESMTWMRQAPGKGLEWVSYISSGGGVKFYADSVKGRFTISRDNAKNSLYLQMNSLRAEDTAVYYCAREAPLRLGESPHDAFDISGQGTMVTVSSGGGGSGGGGSGGGGSGGGGSEVQLVESGGGLVQPGRSLRLSCAASGFTFDDYALHWVRQAPGKDLEWVSGISWNGGSYGYADSVKGRFTISRDNAKNSLYLQMNSLRAEDTALYYCVREKGPGLTGSTADYYGLDAWGQGTMVTVSS
notes: Biparatopic VH-linker-VH; built from its parts here because it is not clear whether 1112 is the protein or the nucleic acid
Turning to B1, the concentration giving a half-maximal response (EC50) in experiment [1] turned out to be 1.1 nM; in [3], 0.5 nM; in [4], 1.2 nM; in [8], 0.5 nM; in [10] it was 0.6 nM. In addition, the half-maximal inhibitory concentration (IC50) in experiment [2] was 1.6 nM; in experiment [6], 1.45 nM; in [7], 1.1 nM; in [9] it was 1.9 nM; in experiment [11] it was 1.2 nM; in [12], 1.3 nM. Moreover, in experiment [5], the “EC50 (M), NFAT-Luciferase reporter gene assay” value was determined as 2e-09 M.

B2: 1.92b-4GS-1.62a (other)
chain: EVQLVESGGGLVKPGGSLRLSCAASGFTFSDESMTWMRQAPGKGLEWVSYISSGGGVKFYADSVKGRFTISRDNAKNSLYLQMNSLRAEDTAVYYCAREAPLRLGESPHDAFDISGQGTMVTVSSGGGGSGGGGSGGGGSGGGGSEVQLVESGGGVVRPGGSLRLSCAASGFTFDDYAMSWVRQAPGKGLEWVSGITWNAGSTGYADSVKGRFTISRDNAKNSLYLQMNSLRAEDTALYYCVRDKYSYAWSYDDFDIWGQGTMVTVSS
notes: Biparatopic VH-linker-VH; also called 1.92-4GS-1.62a; 1.92b-4gs-2.12a
For the molecule B2, the IC50 was determined as 1.4 nM in experiment [13]; 1.8 nM in experiment [2]; 1.2 nM in [6]; 1.1 nM in [7]; 1.6 nM in [9]; 1.7 nM in experiment [11]. This molecule also showed an IC50 in [12] of 2 nM. Further, the EC50 in experiment [1] was 1 nM; in experiment [3], 0.3 nM; in [4] it was 1 nM; in experiment [8], 0.3 nM; in experiment [10], 0.6 nM. For the same molecule, the “EC50 (M), NFAT-Luciferase reporter gene assay” value in [5] turned out to be 1.2e-09 M.
